The results in this text go back to paper PMC2174279.

Test [1] has as its target Bee1p-HA (S. cerevisiae). Kind of test: co-IP.
In test [2] the target is Bee1p (1-165) (S. cerevisiae). In words: two-hybrid.
Test [3] addresses Bee1p (1-633) (S. cerevisiae). In words: two-hybrid.

B1: Vrp1p-Myc (natural protein)
chain: MAGAPAPPPPPPPPALGGSAPKPAKSVMQGRDALLGDIRKGMKLKKAETNDRSAPIVGGGVVSSASGSSGTVSSKGPSMSAPPIPGMGAPQLGDILAGGIPKLKHINNNASTKPSPSASAPPIPGAVPSVAAPPIPNAPLSPAPAVPSIPSSSAPPIPDIPSSAAPPIPIVPSSPAPPLPLSGASAPKVPQNRPHMPSVRPAHRSHQRKSSNISLPSVSAPPLPSASLPTHVSNPPQAPPPPPTPTIGLDSKNIKPTDNAVSPPSSEVPAGGLPFLAEINARRSERGAVEGVSSTKIQTENHKSPSQPPLPSSAPPIPTSHAPPLPPTAPPPPSLPNVTSAPKKATSAPAPPPPPLPAAMSSASTNSVKATPVPPTLAPPLPNTTSVPPNKASSMPAPPPPPPPPPGAFSTSSALSASSIPLAPLPPPPPPSVATSVPSAPPPPPTLTTNKPSASSKQSKISSSSSSSAVTPGGPLPFLAEIQKKRDDRFVVGGDTGYTTQDKQEDVIGSSKDDNVRPSPISPSINPPKQSSQNGMSFLDEIESKLHKQTSSNAFNAPPPHTDAMAPPLPPSAPPPPITSLPTPTASGDDHTNDKSETVLGMKKAKAPALPGHVPPPPVPPVLSDDSKNNVPAASLLHDVLPSSNLEKPPSPPVAAAPPLPTFSAPSLPQQSVSTSIPSPPPVAPTLSVRTETESISKNPTKSPPPPPSPSTMDTGTSNSPSKNLKQRLFSTGGSTLQHKHNTHTNQPDVDVGRYTIGGSNSIVGAKSGNERIVIDDSRFKWTNVSQMPKPRPFQNKTKLYPSGKGSSVPLDLTLFT
B1: in test [1], the percent coimmunoprecipitated was found to be 5%.

B2: Vrp1p (195-817) (domain or fragment)
chain: HMPSVRPAHRSHQRKSSNISLPSVSAPPLPSASLPTHVSNPPQAPPPPPTPTIGLDSKNIKPTDNAVSPPSSEVPAGGLPFLAEINARRSERGAVEGVSSTKIQTENHKSPSQPPLPSSAPPIPTSHAPPLPPTAPPPPSLPNVTSAPKKATSAPAPPPPPLPAAMSSASTNSVKATPVPPTLAPPLPNTTSVPPNKASSMPAPPPPPPPPPGAFSTSSALSASSIPLAPLPPPPPPSVATSVPSAPPPPPTLTTNKPSASSKQSKISSSSSSSAVTPGGPLPFLAEIQKKRDDRFVVGGDTGYTTQDKQEDVIGSSKDDNVRPSPISPSINPPKQSSQNGMSFLDEIESKLHKQTSSNAFNAPPPHTDAMAPPLPPSAPPPPITSLPTPTASGDDHTNDKSETVLGMKKAKAPALPGHVPPPPVPPVLSDDSKNNVPAASLLHDVLPSSNLEKPPSPPVAAAPPLPTFSAPSLPQQSVSTSIPSPPPVAPTLSVRTETESISKNPTKSPPPPPSPSTMDTGTSNSPSKNLKQRLFSTGGSTLQHKHNTHTNQPDVDVGRYTIGGSNSIVGAKSGNERIVIDDSRFKWTNVSQMPKPRPFQNKTKLYPSGKGSSVPLDLTLFT
For the molecule B2, the LacZ expression (two-hybrid) in test [2] and in test [3] was 144 Miller units each time.

B3: Myo5p-SH3-AD (1020-1219) (domain or fragment)
chain: NKAATRRSVPNPASTLTASQSNARPSPPTAATRATPAATPAAAAMGSGRQANIPPPPPPPPPSSKPKEPMFEAAYDFPGSGSPSELPLKKGDVIYITREEPSGWSLGKLLDGSKEGWVPTAYMKPHSGNNNIPTPPQNRDVPKPVLNSVQHDNTSANVIPAAAQASLGDGLANALAARANKMRLESDDEEANEDEEEDDW
In test [3], B3 displayed a LacZ expression (two-hybrid) of 398 Miller units.
